Results published in US20070071744A1 (published 2007).
Ends that are not written are not given here.

Tests used:
Assay in all cases: PepSpot peptide array
peptide 45 = biological target: T1, peptide 45 (human)
T1 peptide: Ac-SYQNGSLWSLPSD
Method: (§1) The peptides were synthesized on a cellulose membrane in a stepwise manner resulting in a defined arrangement (peptide array) and are covalently bound to the cellulose membrane. Binding assays were performed directly on the peptide array. In general an antigen peptide array is incubated with blocking buffer for several hours to reduce non-specific binding of proteins or antibodies. It follows the incubation with a primary (antigen peptide-binding) antibody in blocking buffer and an incubation with a horseradish peroxidase (HRP)-labelled secondary antibody, which binds selectively the primary antibody. Alternatively a HRP-labelled primary antibody in blocking buffer can be used.
(§2) A short T(Tween)-TBS-buffer washing directly after the incubation of the antigen peptide array with the secondary protein or antibody or the HRP-labelled primary antibody followed by the first chemiluminescence experiment is made to get an first overview which antigen peptides do bind the primary antibody. Several buffer washing steps follow (T-TBS- and TBS-buffer) to reduce false positive binding (unspecific antibody binding to the cellulose membrane itself). After these washing steps the final chemiluminescence analysis is performed. The data were analysed with an imaging system showing the signal intensity (Light units, LU) as single measurements for each peptide. In order to evaluate non-specific binding of secondary antibodies, incubations using the secondary antibody have to be performed in the absence of the primary antibody as control incubation.

peptide 66 = biological target: T2, peptide 66 (human)
T2 peptide: Ac-TLQCQTRYGFDQF
Method: as §1, §2

peptide 62 = biological target: T3, peptide 62 (human)
T3 peptide: Ac-AVSSGGDVTLQCQ
Method: as §1, §2

peptide 33 = biological target: T4, peptide 33 (human)
T4 peptide: Ac-SRYQDQAVLFIPA
Method: as §1, §2

peptide 21 = biological target: T5, peptide 21 (human)
T5 peptide: Ac-EKPVTLRCQGPPG
Method: as §1, §2

peptide 80 = biological target: T6, peptide 80 (human)
T6 peptide: Ac-RWYRASFPIITVT
Method: as §1, §2

peptide 84 = biological target: T7, peptide 84 (human)
T7 peptide: Ac-IITVTAAHSGTYR
Method: as §1, §2

peptide 104 = biological target: T8, peptide 104 (human)
T8 peptide: Ac-VTPSRLPTEPPSS
Method: as §1, §2

peptide 28 = biological target: T9, peptide 28 (human)
T9 peptide: Ac-DLYRLEKLSSSRY
Method: as §1, §2

peptide 54 = biological target: T10, peptide 54 (human)
T10 peptide: Ac-ATGVFAKPSLSAQ
Method: as §1, §2

peptide 53 = biological target: T11, peptide 53 (human)
T11 peptide: Ac-LVATGVFAKPSLS
Method: as §1, §2

peptide 51 = biological target: T12, peptide 51 (human)
T12 peptide: Ac-DQLELVATGVFAK
Method: as §1, §2

peptide 25 = biological target: T13, peptide 25 (human)
T13 peptide: Ac-QGPPGVDLYRLEK
Method: as §1, §2

peptide 3 = biological target: T14, peptide 3 (human, cysteine pairing not given here)
T14 peptide: Ac-PTALFCLGLCLGR
Method: as §1, §2

peptide 88 = biological target: T15, peptide 88 (human)
T15 peptide: Ac-SGTYRCYSFSSRD
Method: as §1, §2

peptide 102 = biological target: T16, peptide 102 (human)
T16 peptide: Ac-TGTSVTPSRLPTE
Method: as §1, §2

peptide 77 = biological target: T17, peptide 77 (human)
T17 peptide: Ac-PYKNPERWYRASF
Method: as §1, §2

peptide 59 = biological target: T18, peptide 59 (human)
T18 peptide: Ac-SAQPGPAVSSGGD
Method: as §1, §2

peptide 120 = biological target: T19, peptide 120 (human)
T19 peptide: Ac-FTTETSRSITTSP
Method: as §1, §2

peptide 109 = biological target: T20, peptide 109 (human)
T20 peptide: Ac-PSSVAEFSEATAE
Method: as §1, §2

peptide 90 = biological target: T21, peptide 90 (human)
T21 peptide: Ac-RCYSFSSRDPYLW
Method: as §1, §2

peptide 130 = biological target: T22, peptide 130 (human)
T22 peptide: Ac-GPARQYYTKGNGG
Method: as §1, §2

peptide 18 = biological target: T23, peptide 18 (human)
T23 peptide: Ac-SSLVPLEKPVTLR
Method: as §1, §2

peptide 41 = biological target: T24, peptide 41 (human)
T24 peptide: Ac-SLAGRYRCSYQNG
Method: as §1, §2

peptide 96 = biological target: T25, peptide 96 (human)
T25 peptide: Ac-WSAPSDPLELVVT
Method: as §1, §2

peptide 40 = biological target: T26, peptide 40 (human)
T26 peptide: Ac-KRSLAGRYRCSYQ
Method: as §1, §2

peptide 26 = biological target: T27, peptide 26 (human)
T27 peptide: Ac-PPGVDLYRLEKLS
Method: as §1, §2

peptide 69 = biological target: T28, peptide 69 (human)
T28 peptide: Ac-RYGFDQFALYKEG
Method: as §1, §2

peptide 46 = biological target: T29, peptide 46 (human)
T29 peptide: Ac-QNGSLWSLPSDQL
Method: as §1, §2

peptide 4 = biological target: T30, peptide 4 (human, cysteine pairing not given here)
T30 peptide: Ac-ALFCLGLCLGRVP
Method: as §1, §2

peptide 36 = biological target: T31, peptide 36 (human)
T31 peptide: Ac-AVLFIPAMKRSLA
Method: as §1, §2

peptide 44 = biological target: T32, peptide 44 (human)
T32 peptide: Ac-RCSYQNGSLWSLP
Method: as §1, §2

peptide 74 = biological target: T33, peptide 74 (human)
T33 peptide: Ac-KEGDPAPYKNPER
Method: as §1, §2

peptide 93 = biological target: T34, peptide 93 (human)
T34 peptide: Ac-SRDPYLWSAPSDP
Method: as §1, §2

peptide 8 = biological target: T35, peptide 8 (human)
T35 peptide: Ac-LGRVPAQSGPLPK
Method: as §1, §2

peptide 9 = biological target: T36, peptide 9 (human)
T36 peptide: Ac-RVPAQSGPLPKPS
Method: as §1, §2

peptide 60 = biological target: T37, peptide 60 (human)
T37 peptide: Ac-QPGPAVSSGGDVT
Method: as §1, §2

peptide 37 = biological target: T38, peptide 37 (human)
T38 peptide: Ac-LFIPAMKRSLAGR
Method: as §1, §2

peptide 12 = biological target: T39, peptide 12 (human)
T39 peptide: Ac-GPLPKPSLQALPS
Method: as §1, §2

peptide 95 = biological target: T40, peptide 95 (human)
T40 peptide: Ac-YLWSAPSDPLELV
Method: as §1, §2

peptide 87 = biological target: T41, peptide 87 (human)
T41 peptide: Ac-AHSGTYRCYSFSS
Method: as §1, §2

LU (Light Units) (peptide 45): 12 LU
LU (Light Units) (peptide 66): 82 LU
LU (Light Units) (peptide 62): 49 LU
LU (Light Units) (peptide 33): 259 LU
LU (Light Units) (peptide 21): 128 LU
LU (Light Units) (peptide 80): 184 LU
LU (Light Units) (peptide 84): 87 LU
LU (Light Units) (peptide 104): 91 LU
LU (Light Units) (peptide 28): 179 LU
LU (Light Units) (peptide 54): 1210 LU
signal to noise ratio (peptide 54): ~4 ratio
LU (Light Units) (peptide 53): 359 LU
LU (Light Units) (peptide 51): 73 LU
LU (Light Units) (peptide 25): 56 LU
LU (Light Units) (peptide 3): 74 LU
LU (Light Units) (peptide 88): 64 LU
LU (Light Units) (peptide 102): 160 LU
LU (Light Units) (peptide 77): 97 LU
LU (Light Units) (peptide 59): 155 LU
LU (Light Units) (peptide 120): 250 LU
LU (Light Units) (peptide 109): 69 LU
LU (Light Units) (peptide 90): 65 LU
LU (Light Units) (peptide 130): 255 LU
LU (Light Units) (peptide 18): 219 LU
LU (Light Units) (peptide 41): 8 LU
LU (Light Units) (peptide 96): 210 LU
LU (Light Units) (peptide 40): 139 LU
LU (Light Units) (peptide 26): 101 LU
LU (Light Units) (peptide 69): 78 LU
LU (Light Units) (peptide 46): 1 LU
LU (Light Units) (peptide 4): 5 LU
LU (Light Units) (peptide 36): 125 LU
LU (Light Units) (peptide 44): 9 LU
LU (Light Units) (peptide 74): 8 LU
LU (Light Units) (peptide 93): 107 LU
LU (Light Units) (peptide 8): 794 LU
LU (Light Units) (peptide 9): 1100 LU
LU (Light Units) (peptide 60): 88 LU
LU (Light Units) (peptide 37): 1120 LU
signal to noise ratio (peptide 37): ~4 ratio
LU (Light Units) (peptide 12): 2980 LU
LU (Light Units) (peptide 95): 120 LU
LU (Light Units) (peptide 87): 93 LU
B1: monoclonal antibody hGP 5C4 (antibody, V domains shown)
VH: EVKLQESGGGLVQPGRSLKLSCTASGFTFSDYFMSWVRQAPTRGLEWVASISSGGASAYWRDSVKGRFTISRDNAKSALYLQMDSLRSEDTATYFCARGELDFDYWGQGVMVAVSS
VL: ADPNSTLLSASVGDRVTLNCTASQNVYKNLAWYQQKLGEAPRLLLYSANSQTGIPSRFSGSGSGPDFTLTISSLQPEDVASYFCQQYYSGNTFGAGTKLELKR
notes: Rat hybridoma antibody (Lou/C rats), heavy chain gamma 2a, light chain kappa; also called ab 5C4; anti-GPVI mAb 5C4
